Results taken from the nanobody polyreactivity screen of Harvey et al. (2022).

Assay: yeast display, Sf9 membrane polyspecificity reagent, FACS + sequencing; frameworks hold sequencing errors
How it was run: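 A synthetic nanobody library was expressed on Saccharomyces cerevisiae BJ5465 by galactose induction for 36–48 hours. The library was stained for 1 hour at 4 °C with 10% biotinylated, detergent-solubilized Sf9 membrane reagent and enriched with streptavidin microbeads before FACS. Low and high (top ~1%) gates were set on anti-HA fluorescence for expression and streptavidin fluorescence for reagent binding, and each polyreactivity label reflects the gate of origin.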

Sequence | polyreactivity (PSR sort gate)
QVQLVESGGGLVQAGGSLRLSCAASGSIFRRNAMGWYRQAPGKERELVAAISQSGGSTYYADSVKGRFTISRDNAKNTVYLQMNSLKPEDTAVYYCAAKHRVYGTRGYGYDYWGQGTQVTVSS | high polyreactivity
QVQLVESGGGLVQAGGSLRLSCAASGFIFTRYAMGWYRQAPGKERELVATITSGGSTNYADSVKGRFTISRDNAKNTVYLQMNSLKPEDTAVYYCTARWTGSYTSTGFRRRFDYWGQGTQVTVSS | high polyreactivity
QVQLVESGGGLVQAGGSLRLSCAASGYTFSSNVMGWYRQAPGKERELVAAISANGARTYYADSVKGRFTISRDNAKNTVYLQMNSLKPEDTAVYYCAADYRWAGRYYYWGQGTQVTVSS | high polyreactivity
QVQLVESGGGLVQAGGSRRLSCAASGRTFFYNAMGWYRQAPGKERELLAAISYSGGSTYYADSVKGRFTISRDNAKNTVYLQMNSLKPEDTAVYYCAARDKTRSVRRTGMDYWGQGTQVTVSS | high polyreactivity
QVQLVESGGGLVQAGGSLRLSCAASGITFYANTMGWYRQAPGKERELVAAISGIGGSTYYADSVMGRFAISRDNAKNTVYLQMNSLKPEDTAVYYCNADVYYFLFGTFDYWGQGTQVTVSS | low polyreactivity
QVQLVESGGGLVQAGGSLRLSCAASGFTFYRYAMGWYRQAPGKERELVAAISTSGVSTYYADSVKGRFTISRDNAKNTVYLQMNSLKPEDTAVYYCAKAGWRGSYIYYRFRVGYDSWGQGTQVTVSS | high polyreactivity
QVQLVESGGGLVQAGGSLRLSCAASGIIFYRYAMGWYRQAPGKEWELVAAITWRGGSTYYADSVKGRFTISRDNAKNTVYLQMTSLKPEDTAVYYCAARRRATYEFDYWGQGTQVTVSS | high polyreactivity
QVQLVESGGGLLQAGGSLRLSCAASGRIFDRNAMGWYRQAPGKERELVATISSGDTTDYADSVKGRFTISRDNAKNTVYLQMNSLKPEDTAVYYITIYNYWGQGTQVTVSS | low polyreactivity
QVQLVESGGGLVQAGGSLSLSCAASGRTFSQYAMGWYRPAPGTERELVAAIDRTGDSTYYADSVKGRFTISRDNAKNTVYLQMNSLKPEDTAVYYCNRRYTRVRSRKGYDYWGQGTQVTVSS | high polyreactivity
QVQLVESGGGLVQAGGSLRLSCAASGSTRRYVMGWYRQAPGKERELVAVISRGGSTYYADSVKGRFTISRDNAKNTVNLQMNSLKPEDTAVYYCNVQPVIPRGGDYWGQGTQVTVSS | high polyreactivity
RVQLVESGGGLVQAGGSLRFSCAASGRIFPNNAMGWSSQAPGKARELVAAISRTGGSTYYADSVKGRFTISRDNAKNTVYLQMNSLKPEDTAVYYCAASHARWSPYYSRYYYWGQGTQVTGSS | high polyreactivity
QVQLVESGGGLVQAGGSLRLSCAASGRIFYSNTMGWYRQAPGKERELVAGITSSGGSTYYADSVKGRFTISRDNAKYTVYLQMNSLKPEDTAVYYCATSSVAEAKYVTEGTFDYWGQGTQVTVSS | low polyreactivity
QVQLVESGGGLVQAGGSLRLSCAASGRIFHWYAMGWYRQAPGKERELVAAIRWTGGSTYYADSVKGRFTISRDNAKNTVYLQMNSLKREDTAVYYCAAKGYTGIFYEMDYWGQGTQVTVSS | low polyreactivity
QVQLVESGGGLVQAGGSLRLISAASGFIFKIYAMGWHRQAPGKERDLVAAISSGDNTNYADSVKGRFTISRDNAKNTVYLQMNSLKPEDTAVYYCADRAYRWRSFSTMYYWGQGTQVTVSS | high polyreactivity
QVQLVESGGGLVQAGGSLRLSCAASGSTFWKYVKGWYRQAPGKERELVAAISNSGVNTYYADSVKGRFTISRDNAKNTVYLQMNSLKTEDTAVYYCAADRCGYEYWGQGTQVTVSS | high polyreactivity
HVQLVESGGGLVQAGGSLRLSCAASGRTFVNNAMGWYRQAPGKERELVAAISQSGSRTYYADSVKGRFTISRDNAKNTVYLQMNSLKPEDTAVYYCAARGARYSTSDYWGQGTQVTVSS | high polyreactivity
QVQLVESGGGLVQAGGSLRLSCAASGSNAMGCYRPAPGKDSELVAVITSRGGSTYYADSVKGRFTISRDNAKNTVYLQMNSLKPEDTAVYYCAKAWYVRGTWSVHVRYGYWGQGTQVTVSS | high polyreactivity
QVQIVESGGGLVQAGGSLRLSCAASGLIFKYYAMGWYRQAPGKERELVATITRGGGSTYYADSVKGRFTISRDNAKNTVYLQMNSLKPEDTAVYYCAADYWYVYPRYNPGDYWGQGTQVTVSS | high polyreactivity
QVQLVESGGGLVQAGGSLRLSCAASGSTFDRYAMGWYRQAPRKERELVAANSWSAGRTDYADSVKGRFTISRDNAKNTVYLQMNSLKPEDTAVYYCAADYWYRTFYGYFGYDYWGQGTQVTVSS | low polyreactivity
QVQIVESGGGLVQAGGSLRLSCAASGSTFTWYAMGWYRQAPGKERELVAAIRYSGDSTYYADSVKGRFTISRDNAKNTVYLQMNSLKPEDTAVYYCAAQYYPQYRRRMNYWGQGTQVTVSS | high polyreactivity
QVQLVESGGGLVQAGGSLRLSRAASGSIFDDYAMGWYRQAPGKERELVAAITSGGSTYYADSVKGRFTMSRDNAKNTVYLQRNSLKPEDTAVYYRATRYHWSSSFAPVGAYGYWGQGTQVTVSP | low polyreactivity
QVQLVESGAGLVQAGGSLRLSCAASGSIFDHYAMGWYRQAPGKERELVAAISSSGGSTYYADSVKGRFTISRDNAKNTVYLQMNSLKPEDTAVYSCAARAGYTRYGYWGQGTQVTVSS | high polyreactivity

Sequence | polyreactivity (PSR sort gate)
QDQLVESGGGLVQAGGSLRLSCAASGSTFVKYAMGWYRQAPGKERELVAAITKGGGSTYYADSVKGRFTISRDNAKNTVYLQMNSLKPEDTAVYYCNTSPHYRYGMDYWGQGTQVTVSS | high polyreactivity
QVQHVESVVGFVQAGASLRLSCASSVLILAQNTMGWYRQAPGKERELVAAISWRGGNTYYADSVKGRLTISRDNAKNTVYLKMNILKPEDTAVDYCAARRPRRIVDYDYWGQGTQVTVSS | high polyreactivity
QVQLVESGGGLVQAGGSLRLSCAASGSIFTWYAMGWYRQAPGKERELVAAITRGGSTYADSVKGRFTISRDNAKNTVYLQMNSLKPEDSAVYYCNAVYGVYDFTYWGPGTQVTVSS | low polyreactivity
QVQLVESGGGLVQAGGSLRLSCAASGSIFARYAMGWYRQAPGKERELVATISYRGSSTYYADSVKGRFKISRDNAKNTVYLQMNRLKPEDTAVYSCAARTYRRIYAYYRLDYWGQGTQVTVSS | low polyreactivity
QVQLVESGGGLVQAGGSLHLSCAASGRIFRVNAMGWYRQAPGKERELVAAISYRGGRTYYADSVKGRFTFSRDNAKNTVYLQMNSLKPEDTAVYYCAAKVWARVDGRQFRMEYWGQGTQVTVSS | high polyreactivity
QVQLVDSGGGLVQAGGSLRLSCAASGFTFQRKAMGWYRQATGKERELVAAISKSGGSTYYADSVKARFTISRDNEKNTVYLEMNSLKPEDTAVYYCASTALFSGLTKRYYWGQGTQVTVSS | high polyreactivity
QVQLVESGGGLVQAGGSLRLSCAASGYTFSRYAMGWYRQAPGKERELVAAISSRGGSTYYADSVKGRFTISRDNAKNTVYLQMNSLKPADTAVYYCAADYGVGYGIVGSYYWGQGTQVTVSS | high polyreactivity
QVQLVESGGGLVQAGGSLRLTCAASGITFRAYVMGWYRQEPGKERELVAAINRRGGSTYYADSVKGRFTISRDNAKNTVYLQMNSLKPEDTAVYYCAAGLYSTGYTYDYWGQGTQVTVSS | high polyreactivity
QVQLVESGGGLVQAGGSLRLSCAASGSIFPQNGMGWYRQAPGKERELVAAISSNGDNTYADSVKGRFTISRDNAKNTVYLQMNSLKPEDTAVYYCAAERRRTAGGVYHPWEDYWGQGTQVTVSS | low polyreactivity
QGQLVESGGGLVQAGGSLRLSCAASGLIFTYYDMGWYRQAPGKERELVAAISRRGTSTYYADSVKGRFTISRDNAKNTVYFQMNSLKPEDTEVYYCAADYYYFDSQQGMDYWGQGTQVTVSS | high polyreactivity
QVQLVESGGGLVQAGGSLRLSCAASGSTFTIYAMGWYRQAPGKERELVAAISSGGGDTDYADSVKGRFTISRDNAKNTVYLQMNSLKPEDTAGYYCNAEGTSPRTGYDYCGQGTQVTVSS | low polyreactivity
QVQLVESGGGLVQAGGSLRLSCAASGRTFDIYAMGWYRQAPGKERELVADITWSDGTTYYADSVKRRFTISRDNAKNTVYLQMTSLTPEDTAVYYCNAYTVYAYDYWGQGTQVTVSS | low polyreactivity
QVQLVESGGGLVQAGGSLRLSCAASGFTLLTYVMGWYRQAPGKERELVAAITSSGGRTYYADSVKGRFTISRDNAKNTVYLQMNSLKPEDTAVYYCAAVGWGSSYRARYGYWGQGTQVTVSS | high polyreactivity
QVQLVESGGGLVQAGGSLRLSSAASGRTFVSYAMGWYRQAPGKERELVAVITYSGGSTNYADSVKGRFTISRDNAKNTVYLQMNSLKPEDTAVYYCAATQSIPYSTLYSYDYWGQGTQVTVSS | low polyreactivity
QVQLVESGGGLVQAGGSLRLSCAASGRTFGRNDMAWYRQAQGKERELVAGISIGGGTTYYADSVKGRFTISRDNAKNTVYLQMNSLKPEDTAVYYCAARSWSYLHRYGYWGQGTQVTVSS | high polyreactivity
QVQLVESGGGLVQAGGSLRLSRAASGSIFVSNAMGWYRQAPGKERELVAAIRGVDSTYYADSVKGRFTISRDNAKTTVYLQMNSLKPEDTAVYYCATRGPGYPRYYDWGQGTQVTVSS | high polyreactivity
QVQLVESGGGLVQAGGSLRISCAASGSIFEQYAMAWYRQAPGKERELVAAISKRGTSTYYAVSVKGRFTISRDNAKNTVYLQMNCLKPEDTAVYYCAATNRWYYRDAAAVYAFGYWGQGTQVTVSS | high polyreactivity
QVQLVESGGCLVQAGGSLRLSCAASGITITANAMGWYRQAPRKERELVAAITWSGGSTYYADSVKGRFTISRDNAKNTVYLQMNSLKPEETAVYYCNAEGIGDREYDYWGQGTQVTVSS | low polyreactivity
QVQLVESGGGLVQAGGSLRLSSASSGSIFYVYAMGWYRQAPGKERELVAAIYSGASTYYADSVKGRFTISRDNAKNSVYLQMNSLKPEDTAVYYCADERYFYEYDYWGQGTQVTVSS | low polyreactivity
QVQLVESGGGLVQAGGSLRLSCAASGFTFFNYAMGWYRQAPGKERELVAAISRSGGGTYYADSVKGRFTISRDNAKNTDYLQMNSLKPEDTAVYYCNKRGTHGYTYRKFDYWGQGTQVTVSS | high polyreactivity
QVQLVESGGGLVQAGGSLRLSCAASGTTLPYYAMGWYRQAPGKERELVAAITSSGGDTYYADSVKGRFTISRDNAKNTVYLQMNSLKPEDTAVYYCAKSYSARSTVRKLFYFAYDYWGQGTQVTVSS | low polyreactivity
